Experimental data reported in patent publication US11053313B2, “Anti-CLDN-5 antibody, and drug containing said antibody” (OSAKA UNIVERSITY, priority 2017, dated 2021).

How the values were obtained:
MDCKII/hCLDN-5 = experiment: TEER of CLDN-5 compulsory expression system, MDCKII/hCLDN-5; format: cell-based, human; settings: MDCKII/hCLDN-5, FIG. 7B
hCLDN-5 [1] = target: T1, hCLDN-5 (Homo sapiens, UniProt O00501); experiment: Western blotting operability, HT-1080/hCLDN-5 lysate; format: binding; settings: SDS-PAGE under reducing condition, antibody concentration 10 μg/mL, FIG. 5
T1 construct: expressed in transfected cells; host or cells: HT-1080 human fibrosarcoma cells infected with a pCX4pur-derived retrovirus (HT-1080/hCLDN-5)
T1 sequence (O00501 1-218): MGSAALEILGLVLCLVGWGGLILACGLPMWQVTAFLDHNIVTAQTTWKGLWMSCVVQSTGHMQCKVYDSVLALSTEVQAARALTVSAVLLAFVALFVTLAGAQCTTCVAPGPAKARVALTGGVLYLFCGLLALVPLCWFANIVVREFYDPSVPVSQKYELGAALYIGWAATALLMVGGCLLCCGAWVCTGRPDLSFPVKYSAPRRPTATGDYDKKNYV
Procedure: FIG. 5 illustrates western blotting images showing the CLDN-5 primary structure recognizability of the anti-CLDN-5 antibodies obtained in Example 3-6). The primary antibodies used are shown at the top of the images, and the used cells are shown under the primary antibodies. The names of proteins represented by bands are shown on the left side of the images.
Cell lysates were prepared from HT-1080/mock and HT-1080/hCLDN-5 obtained in Example 1-2), and the lysates were separated by SDS-PAGE under a reducing condition. By using the antibodies (antibody concentration: 10 μg/mL) obtained in Example 1 as primary antibodies, western blotting was performed according to the conventional method. As primary antibodies, commercial monoclonal antibodies (4C3C2, Invitrogen, 35-2500) recognizing the C-terminal of CLDN-5 were used as positive control, and β actin antibodies (Sigma Aldrich, A1978) were used as loading control. The results are illustrated in FIG. 5.

hCLDN-5 [2] = experiment: Epitope analysis by hCLDN-5/hCLDN-1 chimeric CLDN (FACS), loop assignment; format: binding, human; settings: antibody concentration 5 μg/mL, hCLDN-5/hCLDN-1 chimeras
ZO-1 = ZO-1 localization by immunostaining in blood-brain barrier simulation system; format: cell-based; settings: monkey BBB kit, 12 hours after addition, FIG. 14
5-5-1 = target: T2, 5-5-1 (Homo sapiens, UniProt O00501, A162Q/K157R/L160F/Q156A/S151M/S155N/V152T); experiment: Epitope analysis FACS, chimeric protein 5-5-1; format: binding; settings: antibody concentration 5 μg/mL; second extracellular loop substituted with hCLDN-1
T2 construct: expressed in transfected cells; host or cells: retrovirus-infected cells (pCX4pur)
T2 sequence (O00501 1-218 S151M/V152T/S155N/Q156A/K157R/L160F/A162Q): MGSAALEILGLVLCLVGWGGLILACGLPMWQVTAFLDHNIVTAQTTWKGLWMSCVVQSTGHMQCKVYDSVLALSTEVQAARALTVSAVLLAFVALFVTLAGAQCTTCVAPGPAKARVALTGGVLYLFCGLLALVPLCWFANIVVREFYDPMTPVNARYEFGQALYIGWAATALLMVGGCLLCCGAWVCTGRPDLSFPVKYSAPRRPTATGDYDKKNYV

[3] = test system: blood-brain barrier simulation system; experiment: Material permeability of blood-brain barrier simulation system (monkey BBB kit); format: cell-based; settings: 12 hours after addition, FIG. 13
hCLDN-5 [4] = experiment: Epitope analysis by hCLDN-5/mCLDN-5 chimeric CLDN (D68E, T75A, S151T, TM; FACS); format: binding, human; settings: antibody concentration 5 μg/mL, mutants D68E
CLDN-5 = CLDN-5 localization by immunostaining in blood-brain barrier simulation system; format: cell-based; settings: monkey BBB kit, 12 hours after addition, FIG. 14
1-1-5 = target: T3, 1-1-5 (Homo sapiens, UniProt O00501, A34S/A72N/D37G/E76T/F35Y/G26A/H38D/H61Q/K48E/L36A/M29Q/M62I/Q31R/T33Y/T45A/T46M/T75S/V32I/V56S/V70L/W47Y/Y67F); experiment: Epitope analysis FACS, chimeric protein 1-1-5; format: binding; settings: antibody concentration 5 μg/mL; first extracellular loop substituted with hCLDN-1
T3 construct: expressed in transfected cells; host or cells: retrovirus-infected cells (pCX4pur)
T3 sequence (O00501 1-218 G26A/M29Q/Q31R/V32I/T33Y/A34S/F35Y/L36A/D37G/H38D/T45A/T46M/W47Y/K48E/V56S/H61Q/M62I/Y67F/V70L/A72N/T75S/E76T): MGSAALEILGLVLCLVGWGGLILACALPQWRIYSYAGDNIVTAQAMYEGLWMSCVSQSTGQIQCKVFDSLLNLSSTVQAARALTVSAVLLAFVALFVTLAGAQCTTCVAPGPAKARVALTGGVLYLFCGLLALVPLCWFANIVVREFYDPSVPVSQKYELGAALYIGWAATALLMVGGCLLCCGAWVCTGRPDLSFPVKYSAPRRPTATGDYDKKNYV

mCLDN-5 [5] = target: T4, mCLDN-5 (Mus musculus, UniProt O54942); experiment: Cross-species activity FACS, mCLDN-5-expressing cells; format: binding; settings: antibody concentration 5 μg/mL, FIG. 2
T4 construct: expressed in transfected cells; host or cells: retrovirus-infected cells
T4 sequence (O54942 1-218): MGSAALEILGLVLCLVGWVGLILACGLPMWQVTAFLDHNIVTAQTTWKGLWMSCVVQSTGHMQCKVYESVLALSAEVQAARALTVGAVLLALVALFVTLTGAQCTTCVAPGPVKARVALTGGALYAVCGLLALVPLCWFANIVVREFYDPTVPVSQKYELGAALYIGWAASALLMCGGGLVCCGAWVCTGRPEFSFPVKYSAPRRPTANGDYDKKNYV

mCLDN-5 [6] = target: T4, mCLDN-5; experiment: Evaluation of CLDN specificity by FACS, mCLDN-5-expressing cells; format: binding; settings: hybridoma culture supernatant as primary antibody, FIG. 1B

B1: R9: rat anti-CLDN-5 monoclonal antibody, IgG2b/K; VH SEQ ID NO: 17, VL SEQ ID NO: 18; example of antibody I (antibody, V domains shown)
VH: QVTLKESGPGILQPSHTLSLTCSFSGFSLNTYGVGVNWIRQPSGKGLEWLASIWWHGKTYINPSLKNRLTVSKDPSNNQAFLEVTNVDPADTATYYCAHARAQLLDYWGQGVMVTVSS
VL: DIVMTQTPSSQAVSAGEKVTMSCKSSQSLLYSGDQKNYLAWYQQKPGQSPKLLIYLTSTRESGVPDRFIGSGSGTDFTLTISSVQAEDLADYYCQQHYSYPLTFGSGTKLEI
modifications: R9 VH; R9 VL
Q: Which “reduction in TEER” value (MDCKII/hCLDN-5) does the source give for B1 here?
A: greatly reducing TEER

Q: What about the “recognition of linear peptide (western blotting operability)” value (hCLDN-5 [1]) of the same molecule?
A: strongly recognized

Q: And the “extracellular loop of CLDN-5 recognized” value (hCLDN-5 [2])?
A: second extracellular loop

Q: What about the “localization properties of ZO-1” value (ZO-1) of the same molecule?
A: did not change

Q: And the “recognition of 5-5-1” value (5-5-1)?
A: incapable of recognizing

Q: What about the “4 kDa FITC-dextran permeability of the blood-brain barrier simulation system” value [3] of the same molecule?
A: exhibited an activity of improving

Q: What about the “portion of hCLDN-5 recognized” value (hCLDN-5 [4]) of the same molecule?
A: domain around the 151st amino acid from the N-terminal present in the second extracellular loop

Q: What about the “localization properties of CLDN-5 in the intercellular space” value (CLDN-5) of the same molecule?
A: reduced

Q: What about the “recognition of 1-1-5” value (1-1-5) of the same molecule?
A: capable of recognizing

Q: And the “binding capacity to mCLDN-5” value (mCLDN-5 [5])?
A: extremely low

Q: And the “binding capacity to mCLDN-5” value (mCLDN-5 [6])?
A: extremely low
